Square brackets hold non-standard residues; d marks the D form. Ends that are not written are not given here. * marks the point of attachment. Orn = NCCC[C@H](N)C(=O)O; Hexanoyl = CCCCCC(=O)*; Aib = CC(C)(N)C(=O)O
T1: human VPAC2 receptor (human, UniProt P41587 24-438)
T1 sequence (looked up): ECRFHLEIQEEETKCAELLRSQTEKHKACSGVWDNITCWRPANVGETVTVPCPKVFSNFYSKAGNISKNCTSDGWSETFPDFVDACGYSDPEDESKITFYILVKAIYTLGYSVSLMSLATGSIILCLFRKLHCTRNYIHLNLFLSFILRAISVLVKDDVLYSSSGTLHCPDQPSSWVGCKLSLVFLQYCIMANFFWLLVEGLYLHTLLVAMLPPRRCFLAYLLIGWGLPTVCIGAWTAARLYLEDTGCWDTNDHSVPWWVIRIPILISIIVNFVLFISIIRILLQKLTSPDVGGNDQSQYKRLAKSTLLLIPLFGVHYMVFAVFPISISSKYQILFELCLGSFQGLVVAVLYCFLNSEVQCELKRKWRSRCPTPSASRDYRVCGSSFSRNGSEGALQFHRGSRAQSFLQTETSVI

T2: rat VPAC2 receptor (rat, UniProt P35000 23-437)
T2 sequence (looked up): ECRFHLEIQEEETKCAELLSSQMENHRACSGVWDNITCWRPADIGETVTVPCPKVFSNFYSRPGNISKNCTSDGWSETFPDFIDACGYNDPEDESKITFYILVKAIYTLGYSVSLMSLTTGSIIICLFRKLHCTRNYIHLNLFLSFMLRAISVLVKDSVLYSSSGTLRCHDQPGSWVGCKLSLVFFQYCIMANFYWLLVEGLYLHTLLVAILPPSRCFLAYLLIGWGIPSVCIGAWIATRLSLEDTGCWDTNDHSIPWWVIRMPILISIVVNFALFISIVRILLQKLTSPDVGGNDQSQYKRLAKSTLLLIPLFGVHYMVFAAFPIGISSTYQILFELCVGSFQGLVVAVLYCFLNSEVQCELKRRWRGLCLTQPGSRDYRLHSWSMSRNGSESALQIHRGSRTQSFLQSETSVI

T3: rat VPAC1 receptor (rat, UniProt P30083 31-459)
T3 sequence (looked up): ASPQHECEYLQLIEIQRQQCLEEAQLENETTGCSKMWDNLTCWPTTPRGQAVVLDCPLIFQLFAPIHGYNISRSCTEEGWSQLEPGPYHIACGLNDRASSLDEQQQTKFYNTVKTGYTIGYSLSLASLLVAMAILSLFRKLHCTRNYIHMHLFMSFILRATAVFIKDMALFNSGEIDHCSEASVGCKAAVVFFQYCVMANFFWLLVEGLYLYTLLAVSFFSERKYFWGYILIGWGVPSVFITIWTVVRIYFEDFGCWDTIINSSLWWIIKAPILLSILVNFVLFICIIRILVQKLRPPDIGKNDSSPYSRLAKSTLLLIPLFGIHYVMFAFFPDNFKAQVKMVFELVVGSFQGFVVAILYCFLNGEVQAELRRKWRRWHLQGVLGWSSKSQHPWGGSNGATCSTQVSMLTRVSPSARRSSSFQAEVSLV

B1: VPAC2 receptor peptide agonist P487 (peptide)
peptide: HSDAVFTEQYTXLRXQLAAXXYLQSIXXGGPSSGAPPPS
modifications: N-terminal hexanoyl (C6); Tyr(OMe) at 10; Orn at 12, 21, 27 and 28; Aib at 15 and 20; C-terminal amide (-NH2)

These binders were tested against T1, human VPAC2 receptor (assay: cell-based or functional assay).

| Binder | Human VPAC2 Receptor: Alpha Screen (EC50; nM), cAMP generation [nM] |
| --- | --- |
| HSDAVFTDQYTXLRXQLAAXXYLQSIXXGGPSSGAPPPS (N-terminal hexanoyl (C6); Orn at 12, 21, 27 and 28; Aib at 15 and 20) [VPAC2 receptor peptide agonist P395] | 0.15 |
| B1 | 0.24 |
| HSDAVFTDQYTXLRXQVAAXXYLQSIXXGGPSSGAPPPS (N-terminal hexanoyl (C6); Orn at 12, 21, 27 and 28; Aib at 15 and 20) [VPAC2 receptor peptide agonist P396] | 0.11 |
| Hexanoyl-HSDAVFTDNYTLLR[Aib]QVAA[Aib]KYLQSI[Orn]N[Orn]GGPSSGAPPPS [VPAC2 receptor peptide agonist P367] | 6.5 |
| HSDAVFTDNYTXLRXSVAAXKYLQSIXNXGGPSSGAPPPS (N-terminal hexanoyl (C6); Orn at 12, 27 and 29; Aib at 15 and 20) [VPAC2 receptor peptide agonist P390] | 0.12 |

The binders below were run against T2, rat VPAC2 receptor (assay: cell-based or functional assay).

| Binder | Rat VPAC2 Receptor: DiscoveRx (EC50; nM), cAMP generation [nM] |
| --- | --- |
| Hexanoyl-HSDAVFTDNYTR[Aib]R[Aib]QVAA[Aib]KYLQSIK[Aib]KGGPSSGAPPPS [VPAC2 receptor peptide agonist P405] | 0.04 |
| HSDAVFTDQYTXLRXQLAAXXYLQSIXXGGPSSGAPPPS (N-terminal hexanoyl (C6); Orn at 12, 21, 27 and 28; Aib at 15 and 20) [VPAC2 receptor peptide agonist P395] | 0.03 |
| B1 | 0.03 |
| HSDAVFTDQYTXLRXQVAAXXYLQSIXXGGPSSGAPPPS (N-terminal hexanoyl (C6); Orn at 12, 21, 27 and 28; Aib at 15 and 20) [VPAC2 receptor peptide agonist P396] | 0.05 |
| Hexanoyl-HSDAVFTDNYTLLR[Aib]QVAA[Aib]KYLQSI[Orn]N[Orn]GGPSSGAPPPS [VPAC2 receptor peptide agonist P367] | 6.14 |
| HSDAVFTDNYTXLRXSVAAXKYLQSIXNXGGPSSGAPPPS (N-terminal hexanoyl (C6); Orn at 12, 27 and 29; Aib at 15 and 20) [VPAC2 receptor peptide agonist P390] | 0.09 |

The binders below were run against T3, rat VPAC1 receptor (assay: cell-based or functional assay).

| Binder | Rat VPAC1 Receptor: DiscoveRx (EC50; nM), cAMP generation [nM] |
| --- | --- |
| HSDAVFTDQYTXLRXQLAAXXYLQSIXXGGPSSGAPPPS (N-terminal hexanoyl (C6); Orn at 12, 21, 27 and 28; Aib at 15 and 20) [VPAC2 receptor peptide agonist P395] | 0.35 |
| B1 | 1.42 |
| HSDAVFTDQYTXLRXQVAAXXYLQSIXXGGPSSGAPPPS (N-terminal hexanoyl (C6); Orn at 12, 21, 27 and 28; Aib at 15 and 20) [VPAC2 receptor peptide agonist P396] | 1.05 |
| Hexanoyl-HSDAVFTDNYTLLR[Aib]QVAA[Aib]KYLQSI[Orn]N[Orn]GGPSSGAPPPS [VPAC2 receptor peptide agonist P367] | 75.3 |
| HSDAVFTDNYTXLRXSVAAXKYLQSIXNXGGPSSGAPPPS (N-terminal hexanoyl (C6); Orn at 12, 27 and 29; Aib at 15 and 20) [VPAC2 receptor peptide agonist P390] | 1.34 |

From patent publication US20080194482A1, “Selective Apac2 Receptor Peptide Agonists” (priority 2005, published 2008)
